Experimental data reported in article PMC5884726 (Structure (London, England : 1993), 2018).

Target: (UreABC)3 urease apoprotein (Klebsiella aerogenes, UniProt P18316 1-100; P18315 1-106; P18314 1-567)
Test: native MS

Chain of (UreABC)3 urease apoprotein (P18316 whole entry, chain 1 of 3): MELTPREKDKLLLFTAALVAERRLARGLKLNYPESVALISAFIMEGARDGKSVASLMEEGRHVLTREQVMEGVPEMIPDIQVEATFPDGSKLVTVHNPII
Chain of (UreABC)3 urease apoprotein (P18315 whole entry, chain 2 of 3): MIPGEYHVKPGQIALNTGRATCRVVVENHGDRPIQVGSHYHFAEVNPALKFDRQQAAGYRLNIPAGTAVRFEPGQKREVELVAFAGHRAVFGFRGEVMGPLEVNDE
Chain of (UreABC)3 urease apoprotein (P18314 whole entry, chain 3 of 3): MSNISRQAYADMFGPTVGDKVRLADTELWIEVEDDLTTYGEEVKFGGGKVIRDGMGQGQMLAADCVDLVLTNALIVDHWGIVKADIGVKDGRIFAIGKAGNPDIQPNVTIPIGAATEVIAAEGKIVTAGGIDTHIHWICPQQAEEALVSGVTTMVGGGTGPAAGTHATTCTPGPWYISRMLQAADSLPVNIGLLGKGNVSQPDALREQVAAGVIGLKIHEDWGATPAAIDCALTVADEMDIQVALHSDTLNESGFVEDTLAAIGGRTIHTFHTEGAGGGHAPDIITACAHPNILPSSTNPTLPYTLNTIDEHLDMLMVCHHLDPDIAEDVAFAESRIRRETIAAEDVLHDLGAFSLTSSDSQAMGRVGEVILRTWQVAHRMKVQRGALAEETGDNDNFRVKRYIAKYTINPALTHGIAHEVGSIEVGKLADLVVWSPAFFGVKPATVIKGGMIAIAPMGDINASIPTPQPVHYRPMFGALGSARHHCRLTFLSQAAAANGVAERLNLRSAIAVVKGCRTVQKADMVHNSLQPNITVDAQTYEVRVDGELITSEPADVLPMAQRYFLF

B1: maltose binding protein-UreD fusion protein (MBP-UreD) (natural protein, Klebsiella aerogenes, UniProt Q09063 1-270, looked up)
chain: MLPPLKKGWQATLDLRFHQAGGKTVLASAQHVGPLTVQRPFYPEEETCHLYLLHPPGGIVGGDELTISAHLAPGCHTLITMPGASKFYRSSGAQALVRQQLTLAPQATLEWLPQDAIFFPGANARLFTTFHLCASSRLLAWDLLCLGRPVIGETFSHGTLSNRLEVWVDNEPLLVERLHLQEGELSSIAERPWVGTLLCYPATDALLDGVRDALAPLGLYAGASLTDRLLTVRFLSDDNLICQRVMRDVWQFLRPHLTGKSPVLPRIWLT
  binding result: binds
